# In patent publication US20250368754A1 (KANAPH THERAPEUTICS, published 2025):
# B1: T3.06 (anti-hu FAP/hu scLIGHT3(195-198), hu IgG1 DANG) (bispecific antibody)
# heavy: QVQLVQSGAEVKKPGASVKVSCKTSRYTFTEYTIHWVRQAPGQRLEWIGGINPNNGIPNYNQKFKGRVTITVDTSASTAYMELSSLRSEDTAVYYCARRRIAYGYDEGHAMDYWGQGTLVTVSSASTKGPSVFPLAPSSKSTSGGTAALGCLVKDYFPEPVTVSWNSGALTSGVHTFPAVLQSSGLYSLSSVVTVPSSSLGTQTYICNVNHKPSNTKVDKKVEPKSCDKTHTCPPCPAPELLGGPSVFLFPPKPKDTLMISRTPEVTCVVVAVSHEDPEVKFNWYVDGVEVHNAKTKPREEQYGSTYRVVSVLTVLHQDWLNGKEYKCKVSNKALPAPIEKTISKAKGQPREPQVYTLPPSRDELTKNQVSLWCLVKGFYPSDIAVEWESNGQPENNYKTTPPVLDSDGSFFLYSKLTVDKSRWQQGNVFSCSVMHEALHNHYTQKSLSLSPGK
# light: not shown
# chain: not shown
# notes: Knob-into-hole
# B2: T3.15 (anti-hu FAP/hu scLIGHT-LIGHT(L118K, G119E)2, hu IgG1 DANG) (bispecific antibody)
# heavy: B1 heavy
# light: not shown
# chain: not shown
# B3: T3.05 (anti-hu FAP/hu scLIGHT3(226-231), hu IgG1 DANG) (bispecific antibody)
# heavy: B1 heavy
# light: not shown
# chain: not shown
# notes: Knob-into-hole
# B4: T3.16 (anti-hu FAP/hu scLIGHT(226-231)-LTb2, hu IgG1 DANG) (bispecific antibody)
# heavy: B1 heavy
# light: not shown
# chain: not shown
# notes: Knob-into-hole
# B5: T3.17 (anti-hu FAP/hu scLIGHT(195-198)-LTb2, hu IgG1 DANG) (bispecific antibody)
# heavy: B1 heavy
# light: not shown
# chain: not shown
# notes: Knob-into-hole
# Assays:
# [1] = target: T1, human FAP on HEK293-hFAP cells (human, UniProt Q12884 1-760); experiment: flow cytometry on HEK293-hFAP cells, 1 µg protein, anti-human IgG detection
# T1 construct: whole, on cells; also called human FAP-expressing cell line
# T1 sequence (looked up): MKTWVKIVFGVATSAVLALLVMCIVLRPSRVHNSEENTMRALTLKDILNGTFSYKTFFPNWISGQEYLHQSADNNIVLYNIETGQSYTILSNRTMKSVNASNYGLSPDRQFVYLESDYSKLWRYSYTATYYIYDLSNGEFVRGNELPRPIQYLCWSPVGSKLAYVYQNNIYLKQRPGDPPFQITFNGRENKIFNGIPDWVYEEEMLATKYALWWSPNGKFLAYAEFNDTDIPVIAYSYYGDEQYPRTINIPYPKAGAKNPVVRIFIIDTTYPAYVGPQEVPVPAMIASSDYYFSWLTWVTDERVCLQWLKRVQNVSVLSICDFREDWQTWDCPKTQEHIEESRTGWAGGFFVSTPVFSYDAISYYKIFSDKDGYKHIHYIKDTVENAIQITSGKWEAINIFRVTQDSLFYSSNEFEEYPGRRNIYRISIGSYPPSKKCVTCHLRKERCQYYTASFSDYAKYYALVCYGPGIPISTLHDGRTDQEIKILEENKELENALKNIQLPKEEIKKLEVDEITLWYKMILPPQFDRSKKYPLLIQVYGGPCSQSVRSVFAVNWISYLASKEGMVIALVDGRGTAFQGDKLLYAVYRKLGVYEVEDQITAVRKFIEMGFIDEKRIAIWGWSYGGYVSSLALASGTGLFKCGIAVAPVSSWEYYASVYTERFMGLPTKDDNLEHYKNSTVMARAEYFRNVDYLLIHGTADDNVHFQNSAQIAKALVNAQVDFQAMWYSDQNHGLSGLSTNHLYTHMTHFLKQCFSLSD
# Protocol: (§1) Specifically, the cell line was prepared by suspending in a FACS buffer solution at 1×10⁵ cells/100 μL, and treated with 1 μg each of T3.10, T3.01, T3.05, T3.06, T3.14, and T3.18. The cells were washed twice with a FACS buffer solution. The cells were stained with an anti-human IgG antibody (Biolegend). The negative control sample was stained only with an anti-human IgG antibody (Biolegend). The expression ratio of the stained cells was measured using BD LSR and analyzed using FlowJo software.
# [2] = target: T1, human FAP on HEK293-hFAP cells; experiment: flow cytometry on HEK293-hFAP cells, 1 ug protein per 1x10^5 cells, anti-human IgG detection (axis TMEkine-PE)
# Protocol: as §1
# [3] = target: human LTβR on A375 cells (human, UniProt P36941 31-435); experiment: cell-based or functional assay
# [4] = target: T2, recombinant human herpes virus entry mediator (HVEM) (human, UniProt Q92956 39-202); experiment: sandwich ELISA: plate coated with recombinant human HVEM 1 ug/mL, fusion protein from 1 nM in serial dilution, detected with biotinylated recombinant human FAP and streptavidin conjugate, OD 450 nm
# T2 construct: neither construct is described; also called human HVEM; recombinant human HVEM protein (R&D systems)
# T2 sequence (looked up): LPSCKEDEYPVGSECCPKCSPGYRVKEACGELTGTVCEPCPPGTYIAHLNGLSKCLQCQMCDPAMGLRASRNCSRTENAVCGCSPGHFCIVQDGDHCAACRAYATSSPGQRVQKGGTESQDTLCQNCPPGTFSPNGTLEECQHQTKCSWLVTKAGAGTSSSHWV
# Protocol: Considering that LIGHT of the fusion protein must bind to the herpes virus entry mediator (HVEM) for the action, it was confirmed that T3.01 binds to the recombinant human HVEM, as follows: [0370] (i) The recombinant human HVEM protein (R&D systems) was suspended at 1 μg/mL, dispensed in a 96-well immune plate, and treated for 24 hours. [0371] (ii) The wells were washed with a wash solution, and then blocking was performed for 1 hour with 1% BSA (bovine serum albumin, Sigma) solution. [0372] (iii) The wells were washed with a wash solution, and then T3.01, T3.14, T3.16, T3.17, T3.18 and T3.10, or T3.05, T3.06, T3.04, T3.14 and T3.10 were suspended at 1 nM and diluted by serial dilution. The wells were treated with the diluted T3.01, T3.14, T3.16, T3.17, T3.18 and T3.10, or T3.05, T3.06, T3.04, T3.14 and T3.10 for 2 hours. [0373] (iv) The wells were washed with a wash solution, and then treated with the human recombinant FAP-biotin diluted at 0.5 μg/mL for 2 hours. [0374] (v) The wells were washed with a wash solution, and then treated with streptavidin-RP for 20 minutes. [0375] (vi) The wells were washed with a wash solution, and then treated with a substrate solution for 20 minutes. [0376] (vii) The wells were treated with a stop solution, and the absorbance was measured at 450 nm.
# human LTβR on A375 cells, sequence (P36941 31-435): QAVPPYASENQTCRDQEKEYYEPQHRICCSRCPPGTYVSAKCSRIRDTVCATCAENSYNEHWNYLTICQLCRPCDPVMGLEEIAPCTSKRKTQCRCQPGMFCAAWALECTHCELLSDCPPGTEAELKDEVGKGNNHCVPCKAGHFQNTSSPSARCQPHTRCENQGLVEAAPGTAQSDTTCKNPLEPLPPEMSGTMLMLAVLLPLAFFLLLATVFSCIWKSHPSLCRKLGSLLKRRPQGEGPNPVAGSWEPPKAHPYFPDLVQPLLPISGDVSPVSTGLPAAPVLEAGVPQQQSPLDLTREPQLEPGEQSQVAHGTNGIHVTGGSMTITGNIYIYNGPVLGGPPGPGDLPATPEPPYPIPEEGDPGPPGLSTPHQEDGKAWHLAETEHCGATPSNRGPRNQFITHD
Binder,percent of cells bound [1] [%],percent of cells in the positive gate [2] [%],"IL-8 secretion of A375 cells, EC50 (FIG. 15a) [3] [nM]",binding result [4]
B1,≥ 99,100,–,–
B2,–,–,3.79,–
B3,≥ 99,99.8,–,no binding (tested: 1000 pM)
B4,–,–,–,no binding (tested: 1000 pM)
B5,–,–,–,no binding (tested: 1000 pM)
